The values below come from patent US20230399641A1 (SHANGHAITECH UNIVERSITY, published 2023).

For the experiment, the target named is T1, receptor binding domain (RBD) of wildtype SARS-CoV-2 spike (residues 319-541) (SARS-CoV-2, UniProt P0DTC2 319-541).
T1 construct: range 319-541
In words: SPR, purified ACE2 protein on purified RBD of SARS-CoV-2 spike.

B1: purified human ACE2 mutant Q24del (receptor)
chain: STIEEAKTFLDKFNHEAEDLFYQSSLASWNYNTNITEENVQNMNNAGDKWSAFLKEQSTLAQMYPLQEIQNLTVKLQLQALQQNGSSVLSEDKSKRLNTILNTMSTIYSTGKVCNPDNPQECLLLEPGLNEIMANSLDYNERLWAWESWRSEVGKQLRPLYEEYVVLKNEMARANHYEDYGDYWRGDYEVNGVDGYDYSRGQLIEDVEHTFEEIKPLYEHLHAYVRAKLMNAYPSYISPIGCLPAHLLGDMWGRFWTNLYSLTVPFGQKPNIDVTDAMVDQAWDAQRIFKEAEKFFVSVGLPNMTQGFWENSMLTDPGNVQKAVCHPTAWDLGKGDFRILMCTKVTMDDFLTAHHEMGHIQYDMAYAAQPFLLRNGANEGFHEAVGEIMSLSAATPKHLKSIGLLSPDFQEDNETEINFLLKQALTIVGTLPFTYMLEKWRWMVFKGEIPKDQWMKKWWEMKREIVGVVEPVPHDETYCDPASLFHVSNDYSFIRYYTRTLYQFQFQEALCQAAKHEGPLHKCDISNSTEAGQKLFNMLRLGKSEPWTLALENVVGAKNMNVRPLLNYFEPLFTWLKDQNKNSFVGWSTDWSPYAD
For the molecule B1, the Kd (in general, the free concentration of one partner at which half of the binding sites on the other are occupied at equilibrium, for simple one-to-one binding) is 416 nM.
